# Reference: article PMC2905227 (Journal of the American Chemical Society, 2010)
# T1: wild-type E. coli ribonucleotide reductase α2 subunit (E. coli, UniProt P00452 1-761)
# T1 sequence (looked up): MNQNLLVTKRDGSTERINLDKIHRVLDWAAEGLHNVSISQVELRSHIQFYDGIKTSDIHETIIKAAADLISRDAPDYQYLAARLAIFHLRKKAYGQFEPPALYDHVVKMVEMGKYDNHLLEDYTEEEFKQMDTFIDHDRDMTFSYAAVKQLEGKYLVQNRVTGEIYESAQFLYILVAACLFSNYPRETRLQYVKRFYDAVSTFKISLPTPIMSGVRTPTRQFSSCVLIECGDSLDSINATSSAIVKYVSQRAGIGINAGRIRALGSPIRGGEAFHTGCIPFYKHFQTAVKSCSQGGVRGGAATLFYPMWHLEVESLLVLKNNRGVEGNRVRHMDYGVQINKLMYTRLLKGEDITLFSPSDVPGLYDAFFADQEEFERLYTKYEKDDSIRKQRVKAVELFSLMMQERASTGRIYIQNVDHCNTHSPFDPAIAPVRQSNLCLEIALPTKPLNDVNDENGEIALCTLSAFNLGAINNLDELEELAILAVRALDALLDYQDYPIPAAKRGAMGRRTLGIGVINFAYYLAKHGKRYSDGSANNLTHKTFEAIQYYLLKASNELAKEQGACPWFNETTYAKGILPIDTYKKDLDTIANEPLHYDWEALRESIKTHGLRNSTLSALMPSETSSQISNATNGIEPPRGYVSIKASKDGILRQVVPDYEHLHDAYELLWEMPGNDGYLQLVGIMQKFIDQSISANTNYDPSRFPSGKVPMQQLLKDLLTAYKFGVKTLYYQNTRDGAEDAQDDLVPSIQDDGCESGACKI
# B1: [NO2Y122]-β2 (enzyme)
# chain: AYTTFSQTKNDQLKEPMFFGQPVNVARYDQQKYDIFEKLIEKQLSFFWRPEEVDVSRDRIDYQALPEHEKHIFISNLKYQTLLDSIQGRSPNVALLPLISIPELETWVETWAFSETIHSRSYTHIIRNIVNDPSVVFDDIVTNEQIQKRAEGISSYYDELIEMTSYWHLLGEGTHTVNGKTVTVSLRELKKKLYLCLMSVNALEAIRFYVSFACSFAFAERELMEGNAKIIRLIARDEALHLTGTQHMLNLLRSGADDPEMAEIAEECKQECYDLFVQAAQQEKDWADYLFRDGSMIGLNKDILCQYVEYITNIRMQAVGLDLPFQTRSNPIPWINTWLVSDNVQVAPQEVEVSSYLVGQIDSEVDTDDLSNFQL
# modifications: 3-nitrotyrosine (NO2Y) in place of Y122; diferric cluster (met form, 2.9 Fe/β2)
# Target: T1, wild-type E. coli ribonucleotide …
# Experiment: competitive inhibition of enzyme activity
binder,measurement,value
B1,Kd,400 ± 60 nM
